In patent publication US20230357415A1:

Molecular target: IL-5Rα expressed on cells (TF-1/IL-5Rα cells; human eosinophils) (human) (UniProt Q01344)
Assay: cell-based or functional assay

Chain of IL-5Rα expressed on cells (TF-1/IL-5Rα cells; human eosinophils) (human) (Q01344 21-420): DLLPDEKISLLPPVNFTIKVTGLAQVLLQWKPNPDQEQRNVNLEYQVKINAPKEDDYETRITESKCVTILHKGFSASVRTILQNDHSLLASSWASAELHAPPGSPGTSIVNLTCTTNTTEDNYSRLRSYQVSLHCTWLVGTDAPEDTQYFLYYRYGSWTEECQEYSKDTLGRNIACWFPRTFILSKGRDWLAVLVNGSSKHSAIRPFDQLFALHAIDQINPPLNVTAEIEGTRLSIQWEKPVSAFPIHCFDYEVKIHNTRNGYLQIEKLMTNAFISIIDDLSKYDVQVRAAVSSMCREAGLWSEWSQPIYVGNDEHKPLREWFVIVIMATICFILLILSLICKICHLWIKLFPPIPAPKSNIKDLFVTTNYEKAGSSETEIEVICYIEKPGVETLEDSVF

absolute IC50 (Abs IC50), inhibition of IL-5-dependent proliferation of TF-1/IL-5Rα cells: 1.99 nM
Substance: benralizumab analogue (antibody)
